Values of other authors, collected in publication PMC11381289.
Like-named read-outs stand apart in the source and are kept apart here.

Key:
TL (Mus musculus) [1] = target: TL (Mus musculus) (UniProt P14432)
TL (Mus musculus) [2] = target: TL (Mus musculus) (UniProt P14432); remark: listed apart in the source

Sequence of UniProt P14432 (P14432 27-314): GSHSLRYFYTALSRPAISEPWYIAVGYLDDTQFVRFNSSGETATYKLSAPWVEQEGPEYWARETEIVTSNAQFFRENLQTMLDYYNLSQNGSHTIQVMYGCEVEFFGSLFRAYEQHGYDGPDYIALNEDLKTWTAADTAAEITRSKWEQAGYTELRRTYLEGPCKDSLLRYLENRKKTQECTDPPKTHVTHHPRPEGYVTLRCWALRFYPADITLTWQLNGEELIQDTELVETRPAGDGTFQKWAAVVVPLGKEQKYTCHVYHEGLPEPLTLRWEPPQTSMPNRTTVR

| Substance | Kd (TL (Mus musculus) [1]) [µM] | Kd (TL (Mus musculus) [2]) [µM] |
| --- | --- | --- |
| CD8αα (from UniProt P01731) | 12 |  |
| CD8αβ (from UniProt P01731) |  | > 90 |
